The record followed here is PMC3182529.

As usually defined, the Kd is the concentration at which binding is half-saturated. A high value points to a looser complex.

Chain of 14-3-3ζ (P63104 whole entry): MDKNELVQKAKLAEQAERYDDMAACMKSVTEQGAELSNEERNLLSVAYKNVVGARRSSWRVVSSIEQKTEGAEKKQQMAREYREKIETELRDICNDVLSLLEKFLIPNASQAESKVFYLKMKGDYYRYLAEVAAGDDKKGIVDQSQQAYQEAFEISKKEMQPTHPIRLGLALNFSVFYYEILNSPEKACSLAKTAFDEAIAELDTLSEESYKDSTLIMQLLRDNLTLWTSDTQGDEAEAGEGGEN

The assay has as its target 14-3-3ζ (UniProt P63104). As to the kind of experiment: fluorescence polarisation. For orientation: Fluorescence polarisation rises when a labelled molecule tumbles more slowly, as on binding a larger partner.
“H3K27acS28ph (25–38) (from UniProt P68431 26-39) (peptide)” yielded a Kd of 34.9 µM.
Consider “H3S28ph (25–38) (from UniProt P68431 26-39) (peptide)”, for which the Kd was 18.7 µM.
Regarding “H3S28phP30A (25–38) (from UniProt P68431 26-39) (peptide)”, the Kd is 162 µM.
